Assays:
[1] = molecular target: CHD4 ABM (Homo sapiens, UniProt Q14839); assay: ITC
[2] = molecular target: T1, histone H3K9me3 peptide H3K9me3 peptide (Homo sapiens, UniProt P68431, K9me3); assay: ITC
T1 chain: ARTKQTARKSTGGKA

Chain of CHD4 ABM (Q14839 100-140): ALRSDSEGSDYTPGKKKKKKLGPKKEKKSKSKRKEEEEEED

B1: ATRX ADD (protein)
chain: NLKKRGEDGLHGIVSCTACGQQVNHFQKDSIYRHPSLQVLICKNCFKYYMSDDISRDSDGMDEQCRWCAEGGNLICCDFCHNAFCKKCILRNLGRKELSTIMDENNQWYCYICHPEPLLDLVTACNSVFENLEQLLQQNKKKIK
[1]
  Kd: ~46 µM
[2]
  Kd: ~4 µM

Reference: paper PMC12900691 (2025)
